Paper PMC10004559, “Identification of residues involved in allosteric signal transmission from amino acid binding site of pyruvate kinase muscle isoform 2” (PLOS ONE, 2023)

B1: PKM2 N70D (enzyme)
chain: not shown
notes: Pyruvate kinase muscle isoform 2 (PKM2), human, UniProt P14618, with N70D; cloned in pET28a; not shown: His6, N-terminal, kept
B2: PKM2 N75L (enzyme)
chain: not shown
notes: Pyruvate kinase muscle isoform 2 (PKM2), human, UniProt P14618, with N75L; cloned in pET28a; No tag cleavage is described
B3: PKM2 R106A (enzyme)
chain: not shown
notes: Pyruvate kinase muscle isoform 2 (PKM2), human, UniProt P14618, with R106A; cloned in pET28a; No tag cleavage is described

Molecular target: the molecule itself
Assay: SEC; 0.1 mg/ml enzyme in storage buffer (20-50 mM Tris-HCl pH 7.5, 150 mM KCl, 5% glycerol, 0.5 mM EDTA) with 10 mM THP, incubated 15 min without or with 10 mM Asn/Asp/Val/Cys; Superdex 200 10/300 GL, 0.5 ml/min; self-association, tetramer against dimer/monomer

Stoichiometry N, 4:
B1
B2
B3
